{"source": "patent US20250011363A1", "about": "“OPTIMIZED SHORTENED PEPTIDE THAT BINDS TO ACETYLCHOLINE RECEPTOR, AND USE THEREOF” (SKINMED CO., LTD., priority 2021, published 2025)", "key": {"acetylcholine receptor [1]": {"molecular_target": "acetylcholine receptor", "experiment": "SPR, peptide at 10 uM on immobilised AchR"}, "acetylcholine receptor [2]": {"molecular_target": "acetylcholine receptor", "experiment": "SPR, AchR immobilized on chip"}, "[3]": {"molecular_target": "acetylcholine receptor protein", "experiment": "SPR, concentration series (FIG. 9); given as 'affinity'"}, "[4]": {"molecular_target": "acetylcholine receptor protein", "experiment": "SPR, affinity against the reference Synake"}, "[5]": {"molecular_target": "acetylcholine receptor protein", "experiment": "SPR (Biacore 3000), receptor immobilised on CM5 chip, peptide in solution; given as 'affinity'"}, "[6]": {"molecular_target": "acetylcholine receptor protein", "experiment": "SPR, receptor on CM5 chip, method of Example 1 (FIG. 3)"}, "acetylcholine receptor [7]": {"molecular_target": "acetylcholine receptor", "experiment": "SPR, acetylcholine receptor immobilized on chip, peptide at 10 uM"}}}
{"binder": "RKRIRR", "note": "[6mer-1-43]", "values": [{"measurement": "Binding affinity (RU)", "setting": "acetylcholine receptor [1]", "value": 548, "unit": "RU"}, {"measurement": "Binding affinity (RU)", "setting": "acetylcholine receptor [2]", "value": 548, "unit": "RU"}, {"measurement": "Kd", "setting": "[3]", "value": 0.609, "unit": "µM"}]}
{"binder": "RKSLLR", "note": "[Espep2-6mer]", "values": [{"measurement": "fold higher affinity compared to Synake", "setting": "[4]", "value": 40, "unit": "times"}, {"measurement": "Kd", "setting": "[5]", "value": 57, "unit": "µM"}, {"measurement": "RU value", "setting": "[6]", "value": 177, "unit": "RU"}]}
{"binder": "KLYSK", "note": "[5mer-600]", "values": [{"measurement": "Binding affinity (RU)", "setting": "acetylcholine receptor [7]", "value": 64, "unit": "RU"}]}
